Data on two substances can be found in paper PMC7482062.

Experiment [1] deals with P113 N-terminal fragment D106K E107K mutant, biotinylated bait (Plasmodium falciparum (3D7 strain)) (UniProt Q8ILP3). Nature of the experiment: SPR; […]; Biacore 8K, 37°C, HBS-EP.
For experiment [2], the target named is P113 (Plasmodium falciparum) (UniProt Q8ILP3). Particulars: cited from earlier work.

For “RH5, purified monomeric protein (from UniProt Q8IFM5 25-526) (ligand)”, the fold reduction in dissociation half-life against wild type in experiment [1] came out at 2 fold.

Regarding RH5 (from UniProt Q8IFM5), in experiment [2], the Kd (usually the concentration at which binding is half-saturated) is 300 nM.
